Patent JP2019041668A

What was measured:
[1] = target: グリセルアルデヒド由来AGEs含有マウス血清アルブミン (Glycer-AGEs-MSA) (mouse) (UniProt P07724); assay: SPR, Biacore T200; Glycer-AGEs-MSA amine-coupled on CM5 chip, antibody 0.001-100 nM as analyte
[2] = target: グリセルアルデヒド由来AGEs含有マウス血清アルブミン (Glycer-AGEs-MSA) (mouse) (UniProt P07724); assay: SPR, Biacore T200; Glycer-AGEs-MSA amine-coupled on CM5 chip, antibody 0.8-800 nM as analyte

UniProt P07724, sequence (P07724 25-608, form in doubt): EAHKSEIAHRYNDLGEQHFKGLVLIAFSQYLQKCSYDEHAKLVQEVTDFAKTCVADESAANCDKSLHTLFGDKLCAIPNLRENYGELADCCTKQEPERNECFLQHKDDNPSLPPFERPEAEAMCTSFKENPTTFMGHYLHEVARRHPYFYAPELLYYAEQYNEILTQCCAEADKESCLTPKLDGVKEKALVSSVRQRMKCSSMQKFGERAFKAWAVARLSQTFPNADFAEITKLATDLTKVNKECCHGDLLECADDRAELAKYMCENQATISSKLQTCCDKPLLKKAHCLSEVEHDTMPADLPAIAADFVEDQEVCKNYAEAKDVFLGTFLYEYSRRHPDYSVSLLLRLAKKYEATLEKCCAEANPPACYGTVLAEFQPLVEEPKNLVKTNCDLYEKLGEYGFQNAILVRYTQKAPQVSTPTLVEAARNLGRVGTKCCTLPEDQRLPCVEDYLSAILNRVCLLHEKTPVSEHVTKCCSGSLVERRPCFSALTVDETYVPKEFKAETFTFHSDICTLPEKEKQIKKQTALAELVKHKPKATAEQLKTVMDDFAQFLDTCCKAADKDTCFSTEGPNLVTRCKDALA

Kd [1] [nM] | Kd [2] [nM] | Binder
47.6 | – | モノクローナル抗体 6B3 (antibody, V domains shown) VH: VKLQQSGAELVKPGASVKLSCKASGYTFTSYWMHWVKQRPGQGLEWIGEINPSNGRSNYKEKFKFKATLTVDKSSRTAYMQLSSLTSEDSAVYYCARGASWFAYWGQGTTVTVSS VL: QIVLTQSPAIMSASPGEKVTISCSASSSVSYMYWYQQKPGSSPKPWIYRTSNLASGVPARFSGSGSGTSYSLTISSMEAEDAATYYCQQYHSYPRTFGGGTKLEIKR
– | 376 | モノクローナル抗体 11G4 (antibody, V domains shown) VH: VKLQESGAELVKPGTSVKLSCKASGYTFTSYWMHWVKQRPGQGLEWIGEINPSNGRSNYKEKFKFKATLTVDKSSRTAYMQLSRLTSEDSAVYYCARGASWFAYWGQGTTVTVSS VL: ENVLTQSPTIMAASLGQKVTMTCSATSNVSSSYLHWYQQKSGASPKPLIHRTSDLASGVPTRFSGSGSGTSYSLTITSVEAEDDATYYCQQWSGYPFTFGAGTKLELKR
